Assay results as given in PMC10842940, “Establishment of dsDNA-dsDNA interactions by the condensin complex” (Molecular cell, 2023).

Key:
[1] = tested on: condensin pentamer (Schizosaccharomyces pombe); test: condensin immunoprecipitation, 500 mM NaCl wash; settings: Mg2+, ATP, binding buffer, pH and temperature not given in material, washes at 500 mM NaCl (topological loading) or 100 mM NaCl (gripping state)
[2] = tested on: condensin pentamer;condensin pentamer (Schizosaccharomyces pombe;Schizosaccharomyces pombe); test: second DNA capture by condensin preloaded on bead-bound DIG-5kb-DIG; settings: binding buffer, pH and temperature not given in material; Mg2+ and ATP; washes at 500 mM NaCl (topological loading) or 100 mM NaCl (gripping state)
[3] = biological target: T1, Cnd1^Ycs4 (fission yeast condensin HEAT-repeat subunit) (S. pombe, UniProt O94679 1-1158); test: cross-linking; sulfo-SDA cross-link mass spectrometry (CLMS) of the purified five-subunit condensin complex with equimolar 124 bp linear dsDNA and 0.5 mM ADP·BeF3 (DNA-gripping state); CL buffer, 30°C 30 min, UV 365 nm on ice; 1% FDR at residue-pair level; settings: both partners purified
T1 construct: Cnd1 (Ycs4), S. pombe condensin HEAT-repeat subunit; cDNA cloned into an S. cerevisiae expression vector; source: S. cerevisiae (w303, pep4 deleted), co-overexpressed with the other four condensin subunits from GAL1-10 promoters; in cell extract, and purified as the complex (IgG-agarose, 3C protease elution, heparin, Superose 6)
T1 sequence (looked up): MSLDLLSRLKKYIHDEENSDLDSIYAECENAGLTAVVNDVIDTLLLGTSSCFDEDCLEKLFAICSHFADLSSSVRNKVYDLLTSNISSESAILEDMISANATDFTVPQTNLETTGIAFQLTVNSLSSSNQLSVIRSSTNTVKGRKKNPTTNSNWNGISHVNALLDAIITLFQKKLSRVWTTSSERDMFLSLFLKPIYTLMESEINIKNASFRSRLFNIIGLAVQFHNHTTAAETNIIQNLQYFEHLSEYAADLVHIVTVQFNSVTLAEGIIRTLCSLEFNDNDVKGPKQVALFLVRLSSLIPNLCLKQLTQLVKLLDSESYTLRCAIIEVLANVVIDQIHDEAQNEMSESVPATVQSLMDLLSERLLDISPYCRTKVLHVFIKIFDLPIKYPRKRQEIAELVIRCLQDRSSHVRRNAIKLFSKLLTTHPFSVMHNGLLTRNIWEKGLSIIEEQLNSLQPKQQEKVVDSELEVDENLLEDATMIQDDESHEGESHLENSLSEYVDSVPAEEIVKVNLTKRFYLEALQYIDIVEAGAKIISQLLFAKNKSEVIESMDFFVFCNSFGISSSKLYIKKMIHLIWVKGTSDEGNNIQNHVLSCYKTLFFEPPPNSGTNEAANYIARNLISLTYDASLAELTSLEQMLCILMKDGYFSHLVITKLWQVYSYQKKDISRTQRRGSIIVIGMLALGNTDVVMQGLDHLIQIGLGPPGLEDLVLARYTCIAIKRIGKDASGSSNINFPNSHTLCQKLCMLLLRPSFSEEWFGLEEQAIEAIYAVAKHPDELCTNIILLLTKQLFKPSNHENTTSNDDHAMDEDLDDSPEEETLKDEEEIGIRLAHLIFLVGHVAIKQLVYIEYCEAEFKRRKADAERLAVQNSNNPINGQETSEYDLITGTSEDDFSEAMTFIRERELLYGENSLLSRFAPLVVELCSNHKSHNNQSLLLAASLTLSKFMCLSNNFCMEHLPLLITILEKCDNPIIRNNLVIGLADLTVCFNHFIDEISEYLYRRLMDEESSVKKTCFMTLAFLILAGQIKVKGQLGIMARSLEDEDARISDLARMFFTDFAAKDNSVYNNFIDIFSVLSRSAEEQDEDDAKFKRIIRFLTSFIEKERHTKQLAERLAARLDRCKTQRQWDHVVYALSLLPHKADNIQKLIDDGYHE

Molecule | binding signal (% of input DNA recovered) [1] | binding signal (% of second dsDNA captured) [2] | binding result [3]
supercoiled pBlueScript KSII(+) | > 40 | 10 | 
Cnd2^Brn1 (fission yeast condensin kleisin subunit) (natural protein, S. pombe, UniProt Q9Y7R3 1-742, looked up, Cnd2 (Brn1), S. pombe condensin kleisin subunit; cDNA cloned into an S. cerevisiae expression vector; The 2xProtA tag was still on the chain while the complex was captured on rabbit IgG-agarose (assay a1); also called Cnd2-2xProtA; source: S. cerevisiae (w303, pep4 deleted), co-overexpressed with the other four condensin subunits from GAL1-10 promoters; in cell extract, and purified as the …) MKRASLGGHAPVSLPSLNDDALEKKRAKENSRKQRELRRSSALHSITPRRESLNNSSPFNSSHQVPVLSNFEEWIKLATDNKINSTNTWNFALIDYFHDMSLLRDGEDINFQKASCTLDGCVKIYTSRIDSVATETGKLLSGLANDSKVLQQTEEGEDAENDDEDLQKKKERKRAQRSVKTLVKDFESIRAKKFELECSFDPLFKKMCADFDEDGAKGLLMNHLCVDQHGRIVFDSSDTVIKDLENKDVEAESQEAVVAAPIESHDTEMTNVHDNISRETLNGIYKCYFTDIDQLTICPSLQGFEFDSKGNLDVSLLKSLSDEVNMITTTSLVDNTMEKTDADAASLSSDSDGEEGHIVHALEEMAYDEENPYVDVVPKAMDESENPDFGVDTEVNMADGSTMNENYSIISTAAANGVYEYFDKSMKKNWAGPEHWRIQALRKNINNASTVFNSSNTAESSDNVSRSLSSTERKKRRELDNAIDFLQEVDVEALFTPATSSLKLPKSHWKRHNRCLLPDDYQYDSKRLLQLFLKPKMSVLPNADGEGQLQLNKALDDENDLDGIQPHGFDSDGSDNVDEGIPPYGFGDSDSPKQTPLLTPPSSSGFGDNLLLTARLAKPDMLNYAKRAKKVDVRVLKEKLWKCLDLENTIKENSINSHIEGSEMESEETNMPVKSFFSTVNQLEETYEKKELKDISTSFAFICVLHLANEHNLELTSNEDFSDVFIRPGPNLTTLEALENDV |  |  | binds
